Test [1] concerns the target T1, recombinant hCTLA-4-mFc (human CTLA-4 extracellular domain with a C-terminal Fc portion of mouse IgG2a) (human).
T1 construct: also called dimeric CTLA-4 protein
The experiment in a line: competition ELISA, 200 pM hCTLA-4-mFc on plate-coated hB7-1-hIgG1-6His.

For test [2], the target named is T2, soluble human CTLA-4 expressed with a C-terminal myc-myc-polyhistidine tag (human).
T2 construct: soluble protein; also called hCTLA-4.mmh; hCTLA4.mmh
The test is described as follows: SPR, mAb capture, 25 C.

Test [3] has as its target T1, recombinant hCTLA-4-mFc (human CTLA-4 …). The test is described as follows: competition ELISA, 400 pM hCTLA-4-mFc on plate-coated hB7-2-hIgG1-6His.
Test [4] deals with T3, human CTLA-4 (amino acids M1-N223) on stably transfected VI-fibroblast cells (human, UniProt P16410 36-223).
T3 construct: also called VI-fibroblast/hCTLA-4
T3 sequence (P16410 36-223 limits assumed): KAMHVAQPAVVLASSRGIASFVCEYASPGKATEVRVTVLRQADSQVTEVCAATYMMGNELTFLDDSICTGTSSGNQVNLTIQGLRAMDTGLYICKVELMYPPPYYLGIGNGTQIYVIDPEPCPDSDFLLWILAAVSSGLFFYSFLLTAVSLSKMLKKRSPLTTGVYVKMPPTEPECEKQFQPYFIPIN
The test is described as follows: ECL cell binding, VI-fibroblast/hCTLA-4 cells.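 Further: antibodies bound to the cells on carbon electrode plates, detected via SULFO-TAG anti-IgG secondary (1 h, RT), electrochemiluminescence read as RLU over a concentration range.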

In test [5] the target is T4, soluble Macaca fascicularis CTLA-4 expressed with a C-terminal myc-myc-polyhistidine tag (Macaca fascicularis).
T4 construct: soluble protein; also called mf CTLA-4.mmh; mfCTLA4.mmh
T4 chain: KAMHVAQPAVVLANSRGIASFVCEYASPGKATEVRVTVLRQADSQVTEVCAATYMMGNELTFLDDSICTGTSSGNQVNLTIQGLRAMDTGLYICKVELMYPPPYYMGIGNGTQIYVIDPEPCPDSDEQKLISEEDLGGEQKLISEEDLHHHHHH
The experiment in a line: SPR, mAb capture, 25 C.

T1 sequence (chain, as listed by the source limits assumed): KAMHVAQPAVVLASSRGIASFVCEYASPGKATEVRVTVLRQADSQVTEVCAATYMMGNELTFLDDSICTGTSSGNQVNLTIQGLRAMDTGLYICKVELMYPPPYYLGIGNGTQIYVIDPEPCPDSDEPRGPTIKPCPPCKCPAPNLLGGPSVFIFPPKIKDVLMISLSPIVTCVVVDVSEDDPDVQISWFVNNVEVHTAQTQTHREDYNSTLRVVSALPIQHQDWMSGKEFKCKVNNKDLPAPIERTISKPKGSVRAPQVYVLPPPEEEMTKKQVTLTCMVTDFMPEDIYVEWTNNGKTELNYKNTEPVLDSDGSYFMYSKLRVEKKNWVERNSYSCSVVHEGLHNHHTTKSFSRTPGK

B1: H1H20370N (antibody, human IgG1, V domains shown)
VH: QVQLHESGPGLVKPSQTLSLTCSVSGGSISNGGYYWSWIRQHPGQGLEWIGYIYYIGNTYYNPSLESRVTMSIDTSKNQFSLKLSSVTAADTAIYYCARQEFVPGAEYFLHWGQGILVTVSS
VL: DIRMTQSPSSLSASVGDRVTITCRASQTVNTFLNWYQQKPGKAPKLLIFGASSLQSGVPSRFSGSGSGTDFTLTISGLQPEDFAIYYCQQSYSVPPITFGQGTRLEIE
notes: here with human IgG1 Fc (H1H)
In the case of B1, in test [1], the “% Blockade” value is 95% and the IC50 was determined as 0.86 nM. In test [2], this molecule gave a dissociation constant Kd of 3.43 nM, a koff of 0.000588 s⁻¹, a kon of 172000 M⁻¹ s⁻¹ and a t1/2 of 19.6 min. Besides, in test [3], the “% Blockade” value amounted to 96% and the IC50 is 0.99 nM.

B2: H2M20385N (antibody, mouse IgG2, V domains shown)
VH: QVQLVQSGAEVKKPGASVKVSCKTSGYTFTNNGISWVRQVPGQGLEWMGWISPYNGNTKYAQKFQGRVTMTTDTSTTTVYMDVRSLRSDDTAVYFCARDGPITISYFGMDVWGQGTTVTVSS
VL: DIQMTQSPSSLSASVGDRVTITCRASQSISTYLNWYQQKPGKAPKLLIYAASTLQSGVPSRFGGSGSGTDFTLTVSSLQPEDFATYYCQQSYSTPPITFGQGTRLEIN
notes: hybridoma antibody, human variable domains, mouse IgG2 Fc (H2M)
B2: in test [4], the EC50 stood at 5.5 nM and the “ratio of RLU signal to parental VI-fibroblast at 0.6 nM Ab” value (“ratio of RLU signal … at 0.6 nM Ab” below) worked out at 8 ratio.

B3: H1H19264P (antibody, human IgG1, V domains shown)
VH: QVQLVQSGAEVKKPGASVKVSCKASDYTFTSYGISWVRQAPGQGLEWMGWISVYNGNINYAQKFKGRVTMTTDTSTSTAYMELRSLRSDDMAVYYCARVTQFGMDVWGQGTTVTVSS
VL: DIQMTQSPSSLSASVGDRVTITCRASQSISSNLNWYQQNPGKAPKLLIYTTSSLQGGVPSRFSGSGSGTDFTLTISSLQPEDFATYYCQQSFRTPFTFGPGTKVDIK
As to B3, the “% Blockade” value in test [1] was found to be 8%. In test [5], this molecule showed a Kd of 20.3 nM, an off-rate constant (koff) of 0.000994 s⁻¹, a kon of 49000 M⁻¹ s⁻¹ and a t1/2 of 11.6 min. In test [2], this molecule yielded a Kd of 12.1 nM, a koff of 0.000731 s⁻¹, a kon of 60400 M⁻¹ s⁻¹ and a t1/2 of 15.8 min. Besides, the “% Blockade” value in test [3] came out at 43%.

B4: H1H20361N (antibody, human IgG1, V domains shown)
VH: QVQLQESGPGLVKPSQTLSLTCTVSGGSINNGGHYWTWIRQHPGKGLEWIGYIYYIGTTYYNPSLESRLSLSVDTSKNQFSLKLSSVTAADTAIYYCARSSLSVSEAFDVWGQGTMVTVSS
VL: DIQMTQSPSSLSASVGDRITITCRGSQNIGSFLSWYQQRPGKAPKLLIFGAYNLQGGVPSRFSGSGSGTDFTLTISSLQPEDFATYFCQQSYSTPPITFGQGTRLEIK
notes: here with human IgG1 Fc (H1H)
In the case of B4, in test [1], the “% Blockade” value stood at 73% and the IC50 is 69 nM. In test [2], the Kd was determined as 32.1 nM, the koff stood at 0.00199 s⁻¹, the kon is 62100 M⁻¹ s⁻¹ and the t1/2 stood at 5.8 min. In test [3], the “% Blockade” value amounted to 82% and the 50% inhibitory concentration (IC50) was determined as 65 nM.

B5: H1H19305P (antibody, human IgG1, V domains shown)
VH: QVQLQESGPGLVKPSQTLSLTCTVSGGSITSGGYYWSWIRQHPGKGLEWIGYIFYSGITNYNPSLKSRVTISVDTSKNQFSLKLTSVTAADTAVYYCATYNSLRLYYGMDVWGQGTTVTVSS
VL: DVVMTQSPLSLPVILGQPASISCRSSQSLVYGDGNTYLNWFQQRPGQSPRRLIYKVSNRDSGVPDRFSGSGSGTDFTLKISRVEAEDVGVYYCMQSTHWPLTFGGGTKVEIK
In turn, B5 came in with an EC50 in test [4] of 0.84 nM. For the same molecule, in test [1], the “% Blockade” value was 98% and the IC50 turned out to be 0.19 nM. In test [2], binding was put at a Kd of 4.19 nM and the t1/2 was 9.5 min. Also, in test [3], the “% Blockade” value stood at 99% and the IC50 was 0.36 nM.

B6: H2M20387N (antibody, mouse IgG2, V domains shown)
VH: QVQLVESGGGVVQPGRSLRLSCAASGFTFSSYGIHWVRQAPGKGLEWVAVIWYGGNNKYYADSVKGRFTISRDNSKNTLYLQMNSLRAEDTALYHCARSGNFGAFDIWGQGTMVTVSS
VL: EIVLTQSPGTLSLSPGERATLSCRASQSVSSYLAWYQQKPGQAPRLLIYGASSRATGIPDRFSGSGSGTDFILTINRLEPEDFAVYYCQHYGNSPWTFGQGTKVEIK
notes: as for B2
For B6, in test [4], the “ratio of RLU signal … at 0.6 nM Ab” value amounted to 3 ratio.

B7: H1H19307P (antibody, human IgG1, V domains shown)
VH: EVQLVESGGGLVQPGGSLRLACAASGFTFSDYYMDWVRQVPGKGLEWVGRSRDKANSFTTEYVASVKGRFTISREDSKNSVYLQMNSLKTEDTAVYYCARTNYDFSLDVWGQGTTVTVSS
VL: DIQMTQSPSSLSASVGDRVTITCRASQDINNYLAWFQQKPGNAPKSLIYAASSLQSGVPSKFSGSGSGTDFTLTISSLQPEDFATYYCQQYSTYPITFGQGTRLEIK
For B7, in test [4], the EC50 worked out at 3.7 nM and the “ratio of RLU signal to parental VI-fibroblast at 0.4 nM Ab” value was determined as 7 ratio. In test [1], the “% Blockade” value was determined as 99% and the IC50 is 0.18 nM. For the same molecule, in test [5], the Kd was 1.4 nM, the koff was 0.000292 s⁻¹, the kon was 209000 M⁻¹ s⁻¹ and the t1/2 was 39.5 min. In test [2], the Kd turned out to be 1.31 nM, the koff stood at 0.000284 s⁻¹, the kon is 217000 M⁻¹ s⁻¹ and the t1/2 was 40.6 min. For the same molecule, in test [3], the “% Blockade” value is 99% and the IC50 is 0.29 nM.

B8: H2M20379N (antibody, mouse IgG2, V domains shown)
VH: QVQLVESGGGVVQPGRSLRLSCAASGITFSSYGMHWVRQAPGKGLEWVALTSYDGSKKYYSDSVKGRFTISRDNSKNTLYLQMNSLRPEDTAVYYCAKDKGGDDYYGMDVWGQGTTVTVSS
VL: EIVLTQSPGTLSLSPGERATLSCRASQWISSSYLAWYQQKPGQAPRLLIYGAFSRAPGIPGRFSGSGSGTDFTLTISRLEPEDFAVYYCQQYGSSPYTFGQGTKLEIN
notes: as for B2
Turning to B8, in test [4], the EC50 came to 0.092 nM and the “ratio of RLU signal … at 0.6 nM Ab” value amounted to 28 ratio.

B9: H1H20373N (antibody, human IgG1, V domains shown)
VH: EVQLLESGGGLVQPGGSLRLSCAASGFTFSSYAMSWVRQAPGKGLEWVSDISGSGLSTYYADSVKGRFAISRDNSKNMLYLQMNRLRAEDTAVYYCAKEPSHWNGEAFDIWGQGTMVTVSS
VL: DIQMTQSPSSVSASVGDRVTITCRASQDISSWLAWYQQKPGKAPKLLIYTTANLQSGVPSRFSGSGSGTDFTLTISSLQSEDFATYYCQQANSFPFTFGSGTKVDIK
notes: here with human IgG1 Fc (H1H)
For the molecule B9, the “% Blockade” value in test [1] worked out at 22%. In test [2], this molecule came in with a Kd of 0.766 nM, a koff of 0.000401 s⁻¹, a kon of 523000 M⁻¹ s⁻¹ and a t1/2 of 28.8 min. In addition, in test [3], the “% Blockade” value is 91% and the IC50 turned out to be 34 nM.

B10: H1H20372N (antibody, human IgG1, V domains shown)
VH: EVQLVESGGGLVQPGRSLRLSCAGTGFIFDDYAMHWVRQAPGKGLEWVSGISWNSNSLGYADSVKGRFTISRDNAKKSLYLQMSSLRAEDTALYYCVKDVTRLELRGFLDYWGQGTQVTVSS
VL: DIQMTQSPSSLSASVGDRVTITCRASQDIRNDLGWHQQKSGKAPKSLIYAASSLQSGAPSRFSGSGSGTEFTLTISSLQPEDSATYYCLQQNSYPPTFGQGTKVEIK
notes: here with human IgG1 Fc (H1H)
As to B10, in test [1], the “% Blockade” value was found to be 98% and the IC50 amounted to 2.5 nM. In test [2], this molecule returned a Kd of 4.55 nM, an off-rate constant (koff) of 0.000367 s⁻¹, a kon of 80500 M⁻¹ s⁻¹ and a t1/2 of 31.5 min. For the same molecule, in test [3], the “% Blockade” value is 98% and the IC50 was found to be 0.99 nM.

B11: H1H20386N (antibody, human IgG1, V domains shown)
VH: QVQLVESGGGVVQPGRSLRLSCAASGFTVNRYGIHWVRQAPGKGLEWVAVTWYDGRNKYFADSVKGRFSFSRDSSTNTLYLQMNSLRAEDTAVYYCARGGLFGYFDYWGQGTLVTVSS
VL: EIVLTQSPDTLSLSPGERATLSCRASQSVAGSYLAWYQQKPGQAPRLLIYGASSRATGIPDRFSGSGSGTDFTLTISRLEPEDFAVYYCQQYGTSPWTFGQGTKVEIT
notes: here with human IgG1 Fc (H1H)
For the molecule B11, in test [1], the “% Blockade” value worked out at 94% and the IC50 turned out to be 18 nM. In test [2], this molecule registered a dissociation constant (Kd) of 10.5 nM, a koff of 0.00194 s⁻¹, a kon of 185000 M⁻¹ s⁻¹ and a t1/2 of 6 min. For the same molecule, in test [3], the “% Blockade” value was 96% and the IC50 amounted to 7.7 nM.

B12: H2M20386N (antibody, mouse IgG2, V domains shown)
VH: QVQLVESGGGVVQPGRSLRLSCAASGFTVNRYGIHWVRQAPGKGLEWVAVTWYDGRNKYFADSVKGRFSFSRDSSTNTLYLQMNSLRAEDTAVYYCARGGLFGYFDYWGQGTLVTVSS
VL: EIVLTQSPDTLSLSPGERATLSCRASQSVAGSYLAWYQQKPGQAPRLLIYGASSRATGIPDRFSGSGSGTDFTLTISRLEPEDFAVYYCQQYGTSPWTFGQGTKVEIT
notes: as for B2
With B12, the “ratio of RLU signal … at 0.6 nM Ab” value in test [4] is 3 ratio.

B13: H1H20375N (antibody, human IgG1, V domains shown)
VH: QLQLQESGPGLVKPSETLSFTCTVSGGSISSNYYYWGWVRQSPGKGLEWIGSIYHTGNAYDNPSLKSRVTISVDTSKNQFSLNLNSVTAADTAIYYCARHHSSSSWWYFDVWGRGTLVIVSS
VL: EIVLTQSPDTLSLSPGERATLSCRASQTVSNSHLAWYQQKPGQAPRLLIYGTSSRATGIPDRFSGSGSGTDFSLTIIRLEPDDFAVYFCQQHESSPPTFGQGAKLEIK
notes: here with human IgG1 Fc (H1H)
As for B13, the “% Blockade” value in test [1] is 13%. In addition, in test [2], the Kd is 66.5 nM, the koff was found to be 0.00279 s⁻¹, the kon turned out to be 41900 M⁻¹ s⁻¹ and the t1/2 was 4.1 min. In test [3], the “% Blockade” value stood at 29%.

(Values after patent US20210040232A1 (Regeneron, published 2021).)
